From PMC5548887

Target: HHARI full-length (residues 1-557) (UniProt Q9Y4X5)
Assay: ITC; nanoITC, 25 °C, 50 mM NaCl, 10 mM Na2HPO4, 2 mM KH2PO4 pH 7.0; 200 μM UbcH7 proteins injected into 20 μM HHARI full length; 500 μM UbcH5b proteins into 50 μM HHARI full length

UbcH5b wild type, sequence (P62837 whole entry): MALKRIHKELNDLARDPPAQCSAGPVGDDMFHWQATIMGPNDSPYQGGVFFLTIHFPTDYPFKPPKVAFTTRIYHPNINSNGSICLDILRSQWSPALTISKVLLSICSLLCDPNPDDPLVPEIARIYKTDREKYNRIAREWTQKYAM
HHARI full-length (residues 1-557), sequence (Q9Y4X5 whole entry, the tested form may be a part): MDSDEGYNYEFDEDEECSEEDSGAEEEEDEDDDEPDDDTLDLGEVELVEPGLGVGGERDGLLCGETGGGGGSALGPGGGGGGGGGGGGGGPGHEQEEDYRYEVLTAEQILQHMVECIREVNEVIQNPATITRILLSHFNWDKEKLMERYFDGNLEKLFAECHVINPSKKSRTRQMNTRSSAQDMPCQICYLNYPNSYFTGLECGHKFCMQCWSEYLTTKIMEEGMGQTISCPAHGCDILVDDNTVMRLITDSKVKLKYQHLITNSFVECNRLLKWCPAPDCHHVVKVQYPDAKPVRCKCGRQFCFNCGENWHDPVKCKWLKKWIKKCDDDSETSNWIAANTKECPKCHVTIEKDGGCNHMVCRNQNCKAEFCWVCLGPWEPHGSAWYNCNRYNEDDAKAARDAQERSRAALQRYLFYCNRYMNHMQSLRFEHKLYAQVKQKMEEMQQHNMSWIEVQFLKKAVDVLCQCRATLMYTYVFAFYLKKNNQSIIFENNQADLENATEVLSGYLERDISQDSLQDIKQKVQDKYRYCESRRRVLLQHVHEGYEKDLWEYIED

- Kd: 19.5 µM
Substance: UbcH5b wild type (from UniProt P62837 1-147) (enzyme; other documents disagree on this pair)
